In the Human Domainome abundance scans (Beltran et al. 2025):
± gives the uncertainty stated by the source.

B1: Bromodomain adjacent to zinc finger domain protein 2B, residues 1927 to 1982; numbered along this chain, Q9UIF8 (parent)
chain: KSIMKVYCQICRKGDNEELLLLCDGCDKGCHTYCHRPKITTIPDGDWFCPACIAKA

Variants of: B1
Experiment: abundance fitness (aPCA) (normalised: wild type 0, dead -1); higher = more abundant; growth selection in yeast, the domain comes from the species named
Conditions: Homo sapiens

Variant | abundance fitness
KSIMKVYCQICRKGDNEELLLLCDGCDKGCHTYCHRPKITTIPDGDWFCPSCIAKA | -0.024 ± 0.082
KSIMKVYCQICRKGDNEELLLLCDGCDKGCHTYCHRPKITTIPDGDWFCPWCIAKA | -0.175 ± 0.1
KSIMKVYCQICRKGDNEELLLLCDGCDKGCHTYCHRPKITTIPDGDWFCPFCIAKA | -0.385 ± 0.22
KSIMKVYCQICRKGDNEELLLLCDGCDKGCHTYCHRPKITTIPDGDWFCPCCIAKA | -0.124 ± 0.12
KSIMKVYCQICRKGDNEELLLLCDGCDKGCHTYCHRPKITTIPDGDWFCPECIAKA | 0.028 ± 0.11
KSIMKVYCQICRKGDNEELLLLCDGCDKGCHTYCHRPKITTIPDGDWFCPTCIAKA | 0.016 ± 0.12
KSIMKVYCQICRKGDNEELLLLCDGCDKGCHTYCHRPKITTIPDGDWFCPQCIAKA | -0.169 ± 0.15
KSIMKVYCQICRKGDNEELLLLCDGCDKGCHTYCHRPKITTIPDGDWFCPAHIAKA | -0.392 ± 0.17
KSIMKVYCQICRKGDNEELLLLCDGCDKGCHTYCHRPKITTIPDGDWFCPAGIAKA | -0.544 ± 0.067
KSIMKVYCQICRKGDNEELLLLCDGCDKGCHTYCHRPKITTIPDGDWFCPAKIAKA | -0.486 ± 0.15
KSIMKVYCQICRKGDNEELLLLCDGCDKGCHTYCHRPKITTIPDGDWFCPASIAKA | -0.652 ± 0.091
KSIMKVYCQICRKGDNEELLLLCDGCDKGCHTYCHRPKITTIPDGDWFCPAMIAKA | -0.487 ± 0.26
KSIMKVYCQICRKGDNEELLLLCDGCDKGCHTYCHRPKITTIPDGDWFCPAFIAKA | -0.736 ± 0.21
KSIMKVYCQICRKGDNEELLLLCDGCDKGCHTYCHRPKITTIPDGDWFCPAYIAKA | -0.666 ± 0.13
KSIMKVYCQICRKGDNEELLLLCDGCDKGCHTYCHRPKITTIPDGDWFCPALIAKA | -0.891 ± 0.12
KSIMKVYCQICRKGDNEELLLLCDGCDKGCHTYCHRPKITTIPDGDWFCPAVIAKA | -0.905 ± 0.13
KSIMKVYCQICRKGDNEELLLLCDGCDKGCHTYCHRPKITTIPDGDWFCPADIAKA | -0.43 ± 0.18
KSIMKVYCQICRKGDNEELLLLCDGCDKGCHTYCHRPKITTIPDGDWFCPAEIAKA | -0.581 ± 0.1
KSIMKVYCQICRKGDNEELLLLCDGCDKGCHTYCHRPKITTIPDGDWFCPANIAKA | -0.523 ± 0.19
KSIMKVYCQICRKGDNEELLLLCDGCDKGCHTYCHRPKITTIPDGDWFCPAAIAKA | -0.661 ± 0.11
KSIMKVYCQICRKGDNEELLLLCDGCDKGCHTYCHRPKITTIPDGDWFCPARIAKA | -0.581 ± 0.069
KSIMKVYCQICRKGDNEELLLLCDGCDKGCHTYCHRPKITTIPDGDWFCPAPIAKA | -0.833 ± 0.16
KSIMKVYCQICRKGDNEELLLLCDGCDKGCHTYCHRPKITTIPDGDWFCPAQIAKA | -0.531 ± 0.15
KSIMKVYCQICRKGDNEELLLLCDGCDKGCHTYCHRPKITTIPDGDWFCPATIAKA | -0.539 ± 0.13

Variant | abundance fitness
KSIMKVYCQICRKGDNEELLLLCDGCDKGCHTYCHRPKITTIPDGDWFCPAWIAKA | -0.971 ± 0.12
KSIMKVYCQICRKGDNEELLLLCDGCDKGCHTYCHRPKITTIPDGDWFCAACIAKA | -0.074 ± 0.48
KSIMKVYCQICRKGDNEELLLLCDGCDKGCHTYCHRPKITTIPDGDWFCRACIAKA | 0.183 ± 0.35
KSIMKVYCQICRKGDNEELLLLCDGCDKGCHTYCHRPKITTIPDGDWFCGACIAKA | -0.235 ± 0.34
KSIMKVYCQICRKGDNEELLLLCDGCDKGCHTYCHRPKITTIPDGDWFCLACIAKA | -0.71 ± 0.4
KSIMKVYCQICRKGDNEELLLLCDGCDKGCHTYCHRPKITTIPDGDWPCPACIAKA | -0.132 ± 0.12
KSIMKVYCQICRKGDNEELLLLCDGCDKGCHTYCHRPKITTIPDGDWCCPACIAKA | 0.037 ± 0.12
KSIMKVYCQICRKGDNEELLLLCDGCDKGCHTYCHRPKITTIPDGDWVCPACIAKA | 0.044 ± 0.089
KSIMKVYCQICRKGDNEELLLLCDGCDKGCHTYCHRPKITTIPDGDWYCPACIAKA | 0.039 ± 0.16
KSIMKVYCQICRKGDNEELLLLCDGCDKGCHTYCHRPKITTIPDGDWECPACIAKA | -0.028 ± 0.1
KSIMKVYCQICRKGDNEELLLLCDGCDKGCHTYCHRPKITTIPDGDWKCPACIAKA | 0.085 ± 0.14
KSIMKVYCQICRKGDNEELLLLCDGCDKGCHTYCHRPKITTIPDGDWHCPACIAKA | -0.029 ± 0.15
KSIMKVYCQICRKGDNEELLLLCDGCDKGCHTYCHRPKITTIPDGDWMCPACIAKA | -0.01 ± 0.14
KSIMKVYCQICRKGDNEELLLLCDGCDKGCHTYCHRPKITTIPDGDWICPACIAKA | 0.07 ± 0.2
KSIMKVYCQICRKGDNEELLLLCDGCDKGCHTYCHRPKITTIPDGDWSCPACIAKA | 0.037 ± 0.08
KSIMKVYCQICRKGDNEELLLLCDGCDKGCHTYCHRPKITTIPDGDWGCPACIAKA | -0.06 ± 0.069
KSIMKVYCQICRKGDNEELLLLCDGCDKGCHTYCHRPKITTIPDGDWLCPACIAKA | -0.064 ± 0.097
KSIMKVYCQICRKGDNEELLLLCDGCDKGCHTYCHRPKITTIPDGDWTCPACIAKA | 0.008 ± 0.12
KSIMKVYCQICRKGDNEELLLLCDGCDKGCHTYCHRPKITTIPDGDWRCPACIAKA | 0 ± 0.069
KSIMKVYCQICRKGDNEELLLLCDGCDKGCHTYCHRPKITTIPDGDWNCPACIAKA | 0.192 ± 0.15
KSIMKVYCQICRKGDNEELLLLCDGCDKGCHTYCHRPKITTIPDGDWQCPACIAKA | -0.04 ± 0.12
KSIMKVYCQICRKGDNEELLLLCDGCDKGCHTYCHRPKITTIPDGDWACPACIAKA | 0.021 ± 0.089
KSIMKVYCQICRKGDNEELLLLCDGCDKGCHTYCHRPKITTIPDGDWWCPACIAKA | -0.07 ± 0.098
